The target of the assay is wild-type alpha-synuclein (UniProt P37840). Briefly: microfluidic free-flow electrophoresis.

Consider “wild-type alpha-synuclein (from UniProt P37840 1-140) (natural protein)”, for which the oligomer concentration (aptamer-bound, 1:1 assumed) is less than 80 nM.

Source of the values: publication PMC7116857.
